{
  "source": "patent US20180291110A1",
  "target": "complement factor C1q (Sigma, C1740) (UniProt P02745)",
  "sequence (P02745 23-245, chain 1 of 3)": "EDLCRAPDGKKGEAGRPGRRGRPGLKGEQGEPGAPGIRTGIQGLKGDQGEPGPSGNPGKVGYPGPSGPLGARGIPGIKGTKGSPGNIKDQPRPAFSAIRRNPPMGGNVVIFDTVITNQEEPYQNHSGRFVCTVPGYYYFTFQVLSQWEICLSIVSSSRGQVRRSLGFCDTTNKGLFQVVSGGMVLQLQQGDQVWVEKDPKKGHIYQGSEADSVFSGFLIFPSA",
  "sequence (P02746 28-253, chain 2 of 3, further chain)": "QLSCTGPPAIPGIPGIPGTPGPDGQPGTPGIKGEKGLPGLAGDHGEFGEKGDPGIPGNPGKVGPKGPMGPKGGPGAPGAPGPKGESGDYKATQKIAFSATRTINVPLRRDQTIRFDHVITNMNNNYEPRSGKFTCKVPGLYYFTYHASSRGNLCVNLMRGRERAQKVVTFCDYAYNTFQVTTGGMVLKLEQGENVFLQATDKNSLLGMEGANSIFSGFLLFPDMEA",
  "sequence (P02747 29-245, chain 3 of 3, further chain)": "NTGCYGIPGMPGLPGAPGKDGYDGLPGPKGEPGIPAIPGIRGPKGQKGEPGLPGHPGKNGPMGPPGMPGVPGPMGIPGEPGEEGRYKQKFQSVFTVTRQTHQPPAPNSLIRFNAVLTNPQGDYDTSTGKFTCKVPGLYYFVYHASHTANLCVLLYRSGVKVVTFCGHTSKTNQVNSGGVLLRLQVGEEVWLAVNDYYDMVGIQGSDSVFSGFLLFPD",
  "test": "flow cytometry, C1q on antibody-coated BT-474 cells",
  "data": [
    {"substance": "combination of trastuzumab and pertuzumab", "values": [
      {"measurement": "PE-signal (geomean)", "result": 2160}
    ]}
  ]
}
